Assay results as given in PMC11911456, “Investigating synthetic lethality and PARP inhibitor resistance in pancreatic cancer through enantiomer differential activity” (Cell Death Discovery, 2025).

Biological target: T1, human RAD51 protein (human, UniProt Q06609-1 1-339)
T1 construct: RAD51 recombinase, human, NP_002866, bought from Creative Biomart; This is the RAD51 of the ELISA; source: bought: Creative Biomart
T1 sequence (looked up): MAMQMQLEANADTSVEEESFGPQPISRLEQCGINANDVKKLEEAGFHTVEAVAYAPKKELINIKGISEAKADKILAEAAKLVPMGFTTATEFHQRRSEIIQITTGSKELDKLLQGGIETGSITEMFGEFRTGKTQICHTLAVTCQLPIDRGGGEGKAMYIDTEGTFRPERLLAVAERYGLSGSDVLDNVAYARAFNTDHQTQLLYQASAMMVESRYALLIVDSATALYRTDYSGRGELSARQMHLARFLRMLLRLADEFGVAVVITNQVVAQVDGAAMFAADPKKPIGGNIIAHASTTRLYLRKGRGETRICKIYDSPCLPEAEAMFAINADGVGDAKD
Assay: ELISA; competitive ELISA; BRC4-biotinylated peptide coated on 384-well plates, blocked with 1% BSA/PBS-T, overnight hybridisation with human RAD51; small-molecule compounds added 0.01-100 uM at constant 1% DMSO; detection with anti-RAD51 and HRP-secondary antibodies
Details: both partners purified

binding result: binds
B1: BRC4-biotinylated peptide (peptide)
peptide: KEPTLLGFHTASGKKVKIAKESLDKVKNLFDEKEQ
modifications: biotin on the N-terminus
notes: BRC4 repeat of BRCA2; holds the FxxA motif (BRCA2 residues 1524-1527) and the LFDE motif (BRCA2 residues 1545-1548) as numbered in the introduction; also called biotinylated BRC4 peptide; BRC4 peptide; source: bought: Life Technologies
